# Reference: patent EP0251446B1, “Non-human Carbonyl hydrolase mutants, DNA sequences and vectors encoding same and hosts transformed with said vectors” (GENENCOR INTERNATIONAL, INC., priority 1986, dated 1988)
# How the values were obtained:
# Test in all cases: Kinetics of p-nitroanilide substrate hydrolysis, M166
# Type in all cases: biochemical, B. amyloliquefaciens
# Settings in all cases: other: Table XIV, 156 Glu / 166 Met; value in parentheses; synthetic substrate with label as P-1 amino acid
# [1] = substrate: CSCC[C@H](NC(=O)[C@@H]1CCCN1C(=O)[C@H](C)NC(=O)[C@H](C)NC(=O)CCC(=O)O)C(=O)Nc1ccc([N+](=O)[O-])cc1
# From the text: (§1) Wild-type subtilisin was purified from B. subtilis culture supernatants expressing the B. amyloliquefaciens subtilisin gene (Wells, J.A., et al. (1983) Nucleic Acids Res. 11, 7911-7925) as previously described (Estell, D.A., et al. (1985) J. Biol. Chem. 260, 6518-6521). Details of the synthesis of tetrapeptide substrates having the form succinyl-L-AlaL-AlaL-ProL-[X]-p-nitroanilide (where X is the P1 amino acid) are described by DelMar, E.G., et al. (1979) Anal. Biochem. 99, 316-320. Kinetic parameters, Km(M) and kcat-(s-^1) were measured using a modified progress curve analysis (Estell, D.A., et al. (1985) J. Biol. Chem. 260, 6518-6521). Briefly, plots of rate versus product concentration were fit to the differential form of the rate equation using a non-linear regression algorithm. Errors in kcat and Km for all values reported are less than five percent. The various substrates in Table VIII are ranged in order of decreasing hydrophobicity. Nozaki, Y. (1971), J. Biol. Chem. 246, 2211-2217; Tanford C. (1978) Science 200, 1012).
# (§2) To probe the change in substrate specificity caused by steric alterations in the S-1 subsite, position 166 mutants were kinetically analyzed versus P1 substrates of increasing size (i.e., Ala, Met, Phe and Tyr). Ratios of kcat/Km are presented in log form in Figure 15 to allow direct comparisons of transition-state binding energies between various enzyme-substrate pairs.
# (§3) To isolate the contribution of electrostatics to substrate specificity from other chemical binding forces, these various single and double mutants were analyzed for their ability to bind and cleave synthetic substrates containing Glu, Gln, Met and Lys as the P-1 substrate amino acid. This permitted comparisons between side-chains that were more sterically similar but differed in charge (e.g., Glu versus Gln, Lys versus Met). Similarly, mutant enzymes were assayed against homologous P-1 substrates that were most sterically similar but differed in charge (Table XIV).
# (§4) The kcat/Km ratios shown are the second order rate constants for the conversion of substrate to product, and represent the catalytic efficiency of the enzyme. These ratios are presented in logarithmic form to scale the data, and because log kcat/Km is proportional to the lowering of transition-state activation energy (△GT). Mutations at position 156 and 166 produce changes in catalytic efficiency toward Glu, Gln, Met and Lys P-1 substrates of 3100, 60, 200 and 20 fold, respectively.
# [2] = substrate: C[C@H](NC(=O)CCC(=O)O)C(=O)N[C@@H](C)C(=O)N1CCC[C@H]1C(=O)N[C@@H](CCC(N)=O)C(=O)Nc1ccc([N+](=O)[O-])cc1
# From the text: as §1, §2, §3, §4
# [3] = substrate: C[C@H](NC(=O)CCC(=O)O)C(=O)N[C@@H](C)C(=O)N1CCC[C@H]1C(=O)N[C@@H](CCC(=O)O)C(=O)Nc1ccc([N+](=O)[O-])cc1
# From the text: as §1, §2, §3, §4
# [4] = substrate: C[C@H](NC(=O)CCC(=O)O)C(=O)N[C@@H](C)C(=O)N1CCC[C@H]1C(=O)N[C@@H](CCCCN)C(=O)Nc1ccc([N+](=O)[O-])cc1
# From the text: as §1, §2, §3, §4
protein,measurement,setting,value
"B. amyloliquefaciens subtilisin variant Glu156/M166 (Gly166 to Met) (Bacillus amyloliquefaciens; G273M) (protein, at various amino acid residues within the mature form of the subtilisin molecule; made in house; host or cells: Bacillus subtilis BG2036) AQSVPYGVSQIKAPALHSQGYTGSNVKVAVIDSGIDSSHPDLKVAGGASMVPSETNPFQDNNSHGTHVAGTVAALNNSIGVLGVAPSASLYAVKVLGADGSGQYSWIINGIEWAIANNMDVINMSLGGPSGSAALKAAVDKAVASGVVVVAAAGNEGTSGSSSTVMYPGKYPSVIAVGAVDSSNQRASFSSVGPELDVMAPGVSIQSTLPGNKYGAYNGTSMASPHVAGAAALILSKHPNWTNTQVRSSLENTTTKLGDSFYYGKGLINVQAAAQ",Km,[1],14.8 µM
same,Km,[2],646 µM
same,Km,[3],5010 µM
same,Km,[4],129 µM
